According to US20150344570A1 (published 2015):

T1: FcγRIIb extracellular domain with C-terminal His tag (human, UniProt P31994 43-217)
T1 construct: extracellular domain; also called FcgRIIb; 2b
T1 sequence (looked up): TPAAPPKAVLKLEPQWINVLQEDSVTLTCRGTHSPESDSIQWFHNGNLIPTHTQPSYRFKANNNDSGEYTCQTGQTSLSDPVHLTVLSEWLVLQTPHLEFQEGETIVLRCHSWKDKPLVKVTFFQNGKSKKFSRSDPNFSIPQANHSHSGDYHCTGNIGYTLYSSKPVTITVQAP

B1: GpH7-B3 variant T335_15Y/GpL16-k0 (antibody, human IgG1, kappa)
heavy: not shown
light: DIVMTQSPLSLPVTPGEPASISCQASESLVHSNRNTYLHWYLQKPGQSPQLLIYKVSNRFSGVPDRFSGSGSGTDFTLKISRVEAEDVGVYYCSQNTHVPPTFGQGTKVEIERTVAAPSVFIFPPSDEQLKSGTASVVCLLNNFYPREAKVQWKVDNALQSGNSQESVTEQDSKDSTYSLSSTLTLSKADYEKHKVYACEVTHQGLSSPVTKSFNRGEC
notes: also called Ho Ab T335_15Y
B2: GpH7-B3 variant S324_06M/GpL16-k0 (antibody, human IgG1, kappa)
heavy: not shown
light: B1 light
notes: also called Ho Ab S324_06M
B3: GpH7-A5/GpH7-B3 variant G237_09D/GpL16-k0 (antibody, human IgG1, kappa)
heavy 1: not shown
heavy 2: not shown
light: B1 light
notes: also called He Ab G237_09D
B4: GpH7-B3 variant S267_01G/GpL16-k0 (antibody, human IgG1, kappa)
heavy: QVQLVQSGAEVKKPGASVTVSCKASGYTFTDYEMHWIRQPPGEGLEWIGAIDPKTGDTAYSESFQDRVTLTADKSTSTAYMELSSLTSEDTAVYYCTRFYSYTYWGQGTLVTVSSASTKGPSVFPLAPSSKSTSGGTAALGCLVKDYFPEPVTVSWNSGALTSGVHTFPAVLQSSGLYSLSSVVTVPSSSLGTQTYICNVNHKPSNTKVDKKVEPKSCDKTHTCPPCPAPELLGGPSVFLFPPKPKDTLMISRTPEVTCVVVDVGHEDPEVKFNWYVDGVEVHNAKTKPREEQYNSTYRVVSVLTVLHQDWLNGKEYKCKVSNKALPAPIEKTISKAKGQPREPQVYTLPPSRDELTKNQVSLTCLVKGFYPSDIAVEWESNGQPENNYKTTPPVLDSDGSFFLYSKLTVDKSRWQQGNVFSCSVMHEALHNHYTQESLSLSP
light: B1 light
notes: also called Ho Ab S267_01G
B5: GpH7-B3 variant S337_18N/GpL16-k0 (antibody, human IgG1, kappa)
heavy: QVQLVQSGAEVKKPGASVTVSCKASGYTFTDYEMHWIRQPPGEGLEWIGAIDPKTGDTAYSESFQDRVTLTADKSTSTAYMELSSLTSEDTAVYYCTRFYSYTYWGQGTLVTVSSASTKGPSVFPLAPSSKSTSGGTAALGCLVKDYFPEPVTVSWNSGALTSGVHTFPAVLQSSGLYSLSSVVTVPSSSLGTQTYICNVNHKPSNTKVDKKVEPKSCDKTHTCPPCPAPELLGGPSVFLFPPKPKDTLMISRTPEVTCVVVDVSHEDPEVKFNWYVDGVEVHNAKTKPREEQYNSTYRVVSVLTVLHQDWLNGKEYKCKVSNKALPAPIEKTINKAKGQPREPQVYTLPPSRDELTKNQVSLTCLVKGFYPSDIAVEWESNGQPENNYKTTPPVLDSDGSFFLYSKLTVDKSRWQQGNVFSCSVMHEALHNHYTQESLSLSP
light: B1 light
notes: also called Ho Ab S337_18N
B6: GpH7-B3 variant Y296_20W/GpL16-k0 (antibody, human IgG1, kappa)
heavy: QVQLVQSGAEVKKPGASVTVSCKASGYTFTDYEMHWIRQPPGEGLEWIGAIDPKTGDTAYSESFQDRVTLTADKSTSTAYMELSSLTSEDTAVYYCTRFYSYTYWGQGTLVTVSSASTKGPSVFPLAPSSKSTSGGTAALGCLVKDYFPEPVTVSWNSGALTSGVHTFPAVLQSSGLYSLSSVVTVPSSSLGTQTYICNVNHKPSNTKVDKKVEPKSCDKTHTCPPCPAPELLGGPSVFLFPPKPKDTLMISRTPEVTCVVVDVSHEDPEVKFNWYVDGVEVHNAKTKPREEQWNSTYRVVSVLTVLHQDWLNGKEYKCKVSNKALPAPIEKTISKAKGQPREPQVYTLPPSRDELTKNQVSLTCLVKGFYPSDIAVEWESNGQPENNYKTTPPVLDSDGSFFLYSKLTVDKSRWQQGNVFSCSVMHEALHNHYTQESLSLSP
light: B1 light
notes: also called Ho Ab Y296_20W
B7: GpH7-B3 variant P238_15Y/GpL16-k0 (antibody, human IgG1, kappa)
heavy: not shown
light: B1 light
notes: also called Ho Ab P238_15Y
B8: GpH7-B3 variant T335_16H/GpL16-k0 (antibody, human IgG1, kappa)
heavy: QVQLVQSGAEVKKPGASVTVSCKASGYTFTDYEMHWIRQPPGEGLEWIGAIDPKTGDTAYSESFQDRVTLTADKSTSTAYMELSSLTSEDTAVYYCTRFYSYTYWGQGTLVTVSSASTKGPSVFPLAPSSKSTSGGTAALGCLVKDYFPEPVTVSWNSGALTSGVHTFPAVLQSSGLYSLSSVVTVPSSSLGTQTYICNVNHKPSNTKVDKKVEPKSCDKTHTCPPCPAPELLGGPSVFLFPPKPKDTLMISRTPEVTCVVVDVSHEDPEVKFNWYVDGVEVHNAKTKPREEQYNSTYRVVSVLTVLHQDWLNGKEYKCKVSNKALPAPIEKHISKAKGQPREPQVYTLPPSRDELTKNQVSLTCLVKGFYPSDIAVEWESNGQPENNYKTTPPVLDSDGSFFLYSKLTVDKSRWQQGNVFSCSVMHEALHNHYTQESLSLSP
light: B1 light
notes: also called Ho Ab T335_16H
B9: GpH7-B3 variant P271_09D/GpL16-k0 (antibody, human IgG1, kappa)
heavy: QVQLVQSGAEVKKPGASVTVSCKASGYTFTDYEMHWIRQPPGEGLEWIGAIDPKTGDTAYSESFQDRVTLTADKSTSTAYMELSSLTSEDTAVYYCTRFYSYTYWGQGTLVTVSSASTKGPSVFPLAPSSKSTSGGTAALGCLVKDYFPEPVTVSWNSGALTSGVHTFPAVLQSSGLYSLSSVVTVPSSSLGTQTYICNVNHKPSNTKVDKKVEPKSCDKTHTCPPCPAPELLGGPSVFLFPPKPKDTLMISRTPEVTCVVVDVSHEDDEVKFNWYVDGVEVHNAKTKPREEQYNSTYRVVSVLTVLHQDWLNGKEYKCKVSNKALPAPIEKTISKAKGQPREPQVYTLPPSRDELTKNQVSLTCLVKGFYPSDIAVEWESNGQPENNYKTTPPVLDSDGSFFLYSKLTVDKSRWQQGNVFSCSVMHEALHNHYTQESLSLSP
light: B1 light
notes: also called Ho Ab P271_09D
B10: GpH7-B3 variant S239_05P/GpL16-k0 (antibody, human IgG1, kappa)
heavy: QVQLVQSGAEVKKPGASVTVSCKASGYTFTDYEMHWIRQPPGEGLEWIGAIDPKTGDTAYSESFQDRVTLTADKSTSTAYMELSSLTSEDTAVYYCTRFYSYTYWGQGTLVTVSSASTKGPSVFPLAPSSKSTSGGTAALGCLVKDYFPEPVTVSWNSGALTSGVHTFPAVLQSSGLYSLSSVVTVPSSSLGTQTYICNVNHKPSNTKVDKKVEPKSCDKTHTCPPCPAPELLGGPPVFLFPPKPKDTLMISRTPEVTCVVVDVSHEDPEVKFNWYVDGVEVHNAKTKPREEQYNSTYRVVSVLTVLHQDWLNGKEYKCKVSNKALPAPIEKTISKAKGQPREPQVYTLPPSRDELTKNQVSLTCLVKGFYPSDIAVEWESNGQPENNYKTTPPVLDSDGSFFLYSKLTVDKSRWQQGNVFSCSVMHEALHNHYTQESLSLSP
light: B1 light
notes: also called Ho Ab S239_05P
B11: GpH7-B3 variant P331_06M/GpL16-k0 (antibody, human IgG1, kappa)
heavy: not shown
light: B1 light
notes: also called Ho Ab P331_06M
B12: GpH7-B3 variant P331_20W/GpL16-k0 (antibody, human IgG1, kappa)
heavy: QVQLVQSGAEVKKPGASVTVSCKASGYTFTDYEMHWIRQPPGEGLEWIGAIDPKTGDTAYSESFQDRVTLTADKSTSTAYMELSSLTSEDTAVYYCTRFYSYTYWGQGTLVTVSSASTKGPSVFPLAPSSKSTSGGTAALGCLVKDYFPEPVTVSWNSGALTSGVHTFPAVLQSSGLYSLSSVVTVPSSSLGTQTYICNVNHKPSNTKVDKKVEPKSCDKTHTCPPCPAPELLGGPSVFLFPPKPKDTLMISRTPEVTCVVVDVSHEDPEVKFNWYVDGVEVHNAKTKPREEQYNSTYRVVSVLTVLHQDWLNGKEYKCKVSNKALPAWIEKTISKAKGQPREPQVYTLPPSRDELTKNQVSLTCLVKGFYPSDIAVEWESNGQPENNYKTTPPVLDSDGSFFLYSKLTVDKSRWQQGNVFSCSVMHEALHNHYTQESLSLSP
light: B1 light
notes: also called Ho Ab P331_20W
B13: GpH7-A5/GpH7-B3 variant A327_18N/GpL16-k0 (antibody, human IgG1, kappa)
heavy 1: not shown
heavy 2: not shown
light: B1 light
notes: also called He Ab A327_18N
B14: GpH7-A5/GpH7-B3 variant A330_01G/GpL16-k0 (antibody, human IgG1, kappa)
heavy 1: not shown
heavy 2: not shown
light: B1 light
notes: also called He Ab A330_01G
B15: GpH7-B3 variant V266_06M/GpL16-k0 (antibody, human IgG1, kappa)
heavy: not shown
light: B1 light
notes: also called Ho Ab V266_06M
B16: GpH7-B3 variant P238_20W/GpL16-k0 (antibody, human IgG1, kappa)
heavy: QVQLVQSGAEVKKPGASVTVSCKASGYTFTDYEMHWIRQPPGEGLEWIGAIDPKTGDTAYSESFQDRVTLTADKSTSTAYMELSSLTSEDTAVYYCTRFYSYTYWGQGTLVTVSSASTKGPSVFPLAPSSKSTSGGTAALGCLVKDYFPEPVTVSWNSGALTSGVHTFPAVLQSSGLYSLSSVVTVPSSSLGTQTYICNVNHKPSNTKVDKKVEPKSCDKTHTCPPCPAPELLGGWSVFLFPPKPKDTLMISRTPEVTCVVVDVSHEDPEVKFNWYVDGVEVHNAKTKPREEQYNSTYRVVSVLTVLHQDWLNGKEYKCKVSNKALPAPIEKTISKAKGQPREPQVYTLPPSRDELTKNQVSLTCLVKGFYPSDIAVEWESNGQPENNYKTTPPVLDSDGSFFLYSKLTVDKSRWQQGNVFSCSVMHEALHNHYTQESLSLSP
light: B1 light
notes: also called Ho Ab P238_20W
B17: GpH7-B3 variant P271_10E/GpL16-k0 (antibody, human IgG1, kappa)
heavy: not shown
light: B1 light
notes: also called Ho Ab P271_10E
B18: GpH7-B3 variant P238_09D/GpL16-k0 (antibody, human IgG1, kappa)
heavy: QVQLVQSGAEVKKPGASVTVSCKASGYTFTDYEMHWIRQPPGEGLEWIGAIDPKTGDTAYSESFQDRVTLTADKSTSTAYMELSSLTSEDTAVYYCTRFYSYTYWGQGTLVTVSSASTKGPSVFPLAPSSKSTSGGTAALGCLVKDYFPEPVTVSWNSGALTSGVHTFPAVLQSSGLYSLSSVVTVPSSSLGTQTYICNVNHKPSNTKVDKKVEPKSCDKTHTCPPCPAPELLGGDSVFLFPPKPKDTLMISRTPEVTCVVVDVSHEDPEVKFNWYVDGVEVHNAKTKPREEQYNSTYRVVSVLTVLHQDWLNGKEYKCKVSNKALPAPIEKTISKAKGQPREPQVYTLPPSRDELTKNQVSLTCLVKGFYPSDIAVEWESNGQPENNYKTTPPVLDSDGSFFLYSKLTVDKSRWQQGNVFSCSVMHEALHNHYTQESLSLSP
light: B1 light
notes: also called Ho Ab P238_09D
B19: GpH7-B3 variant P238_19Q/GpL16-k0 (antibody, human IgG1, kappa)
heavy: not shown
light: B1 light
notes: also called Ho Ab P238_19Q
B20: GpH7-B3 variant S337_16H/GpL16-k0 (antibody, human IgG1, kappa)
heavy: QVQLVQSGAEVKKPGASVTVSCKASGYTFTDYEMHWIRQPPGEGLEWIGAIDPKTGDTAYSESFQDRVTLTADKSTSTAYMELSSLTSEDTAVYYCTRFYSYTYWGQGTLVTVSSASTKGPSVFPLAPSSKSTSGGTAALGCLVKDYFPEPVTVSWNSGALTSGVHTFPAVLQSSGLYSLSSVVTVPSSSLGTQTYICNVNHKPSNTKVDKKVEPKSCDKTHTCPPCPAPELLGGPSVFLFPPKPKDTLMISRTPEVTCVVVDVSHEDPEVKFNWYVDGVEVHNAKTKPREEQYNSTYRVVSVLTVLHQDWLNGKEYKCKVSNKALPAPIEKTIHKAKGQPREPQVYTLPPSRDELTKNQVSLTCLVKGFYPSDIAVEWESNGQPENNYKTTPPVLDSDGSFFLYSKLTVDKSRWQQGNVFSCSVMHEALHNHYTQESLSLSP
light: B1 light
notes: also called Ho Ab S337_16H
B21: GpH7-B3 variant P331_07I/GpL16-k0 (antibody, human IgG1, kappa)
heavy: not shown
light: B1 light
notes: also called Ho Ab P331_07I
B22: GpH7-B3 variant P331_16H/GpL16-k0 (antibody, human IgG1, kappa)
heavy: not shown
light: B1 light
notes: also called Ho Ab P331_16H
B23: GpH7-B3 variant S337_08L/GpL16-k0 (antibody, human IgG1, kappa)
heavy: not shown
light: B1 light
notes: also called Ho Ab S337_08L
B24: GpH7-B3 variant P331_15Y/GpL16-k0 (antibody, human IgG1, kappa)
heavy: not shown
light: B1 light
notes: also called Ho Ab P331_15Y
B25: GpH7-A5/GpH7-B3 variant G237_04F/GpL16-k0 (antibody, human IgG1, kappa)
heavy 1: not shown
heavy 2: not shown
light: B1 light
notes: also called He Ab G237_04F
B26: GpH7-B3 variant P238_06M/GpL16-k0 (antibody, human IgG1, kappa)
heavy: not shown
light: B1 light
notes: also called Ho Ab P238_06M
B27: GpH7-B3 variant S239_03V/GpL16-k0 (antibody, human IgG1, kappa)
heavy: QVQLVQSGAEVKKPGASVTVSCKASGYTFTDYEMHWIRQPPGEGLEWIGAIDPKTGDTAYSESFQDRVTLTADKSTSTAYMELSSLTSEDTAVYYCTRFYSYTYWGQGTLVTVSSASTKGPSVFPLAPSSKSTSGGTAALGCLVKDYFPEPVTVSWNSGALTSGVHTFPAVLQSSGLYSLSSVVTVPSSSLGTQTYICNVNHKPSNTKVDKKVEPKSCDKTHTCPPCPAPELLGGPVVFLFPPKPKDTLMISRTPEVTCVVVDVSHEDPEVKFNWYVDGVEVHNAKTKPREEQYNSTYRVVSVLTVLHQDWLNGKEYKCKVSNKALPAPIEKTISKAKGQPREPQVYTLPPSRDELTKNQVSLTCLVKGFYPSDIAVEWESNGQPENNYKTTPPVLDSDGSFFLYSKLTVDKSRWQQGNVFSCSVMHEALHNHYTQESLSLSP
light: B1 light
notes: also called Ho Ab S239_03V
B28: GpH7-A5/GpH7-B3 variant G237_10E/GpL16-k0 (antibody, human IgG1, kappa)
heavy 1: not shown
heavy 2: not shown
light: B1 light
notes: also called He Ab G237_10E

Molecular target: T1, FcγRIIb extracellular domain with …
Assay: SPR (Biacore), relative binding
Method: Analysis of interaction between objective antibody and the FcγR was carried out using Biacore T100 (GE Healthcare). HBS-EP+ (GE Healthcare) was used as the running buffer, and the measurement temperature was set to 25° C. Chips produced by immobilizing the antigen peptide by the amine coupling method to a Series S Sencor Chip CM5 (GE Healthcare), or alternatively, chips produced by allowing preliminarily biotinylated antigen peptides to interact with and immobilize onto a Series S Sensor Chip SA (certified) (GE Healthcare) were used. Antibodies of interest were captured onto an antigen peptide-immobilized chip, and allowed to interact to each FcγR diluted with running buffer. To regenerate and repeatedly use the chip, the antibodies captured on the chip were washed off by reacting 10 mM glycine-HCl, pH 1.5.

Row | Binder | Ho/Con_2b | He/Con_2b
1 | B1 | 104 % of HoCon Ab GpH7-B3/GpL16-k0 | 
2 | B2 | 104 % of HoCon Ab GpH7-B3/GpL16-k0 | 
3 | B3 |  | 223 % of HeCon Ab GpH7-A5/GpH7-B3/GpL16-k0
4 | B4 | 97 % of HoCon Ab GpH7-B3/GpL16-k0 | 
5 | B5 | 98 % of HoCon Ab GpH7-B3/GpL16-k0 | 
6 | B6 | 103 % of HoCon Ab GpH7-B3/GpL16-k0 | 
7 | B7 | 114 % of HoCon Ab GpH7-B3/GpL16-k0 | 
8 | B8 | 97.2 % of HoCon Ab GpH7-B3/GpL16-k0 | 
9 | B9 | 100 % of HoCon Ab GpH7-B3/GpL16-k0 | 
10 | B10 | 61 % of HoCon Ab GpH7-B3/GpL16-k0 | 
11 | B11 | 71.5 % of HoCon Ab GpH7-B3/GpL16-k0 | 
12 | B12 | 111 % of HoCon Ab GpH7-B3/GpL16-k0 | 
13 | B13 |  | 113 % of HeCon Ab GpH7-A5/GpH7-B3/GpL16-k0
14 | B14 |  | 104 % of HeCon Ab GpH7-A5/GpH7-B3/GpL16-k0
15 | B15 | 231 % of HoCon Ab GpH7-B3/GpL16-k0 | 
16 | B16 | 12.6 % of HoCon Ab GpH7-B3/GpL16-k0 | 
17 | B17 | 95 % of HoCon Ab GpH7-B3/GpL16-k0 | 
18 | B18 | 207 % of HoCon Ab GpH7-B3/GpL16-k0 | 
19 | B19 | 42.7 % of HoCon Ab GpH7-B3/GpL16-k0 | 
20 | B20 | 103 % of HoCon Ab GpH7-B3/GpL16-k0 | 
21 | B21 | 63.3 % of HoCon Ab GpH7-B3/GpL16-k0 | 
22 | B22 | 100 % of HoCon Ab GpH7-B3/GpL16-k0 | 
23 | B23 | 90.7 % of HoCon Ab GpH7-B3/GpL16-k0 | 
24 | B24 | 111 % of HoCon Ab GpH7-B3/GpL16-k0 | 
25 | B25 |  | 149 % of HeCon Ab GpH7-A5/GpH7-B3/GpL16-k0
26 | B26 | 97.1 % of HoCon Ab GpH7-B3/GpL16-k0 | 
27 | B27 | 108 % of HoCon Ab GpH7-B3/GpL16-k0 | 
28 | B28 |  | 114 % of HeCon Ab GpH7-A5/GpH7-B3/GpL16-k0
